Source: paper PMC4620370 (Journal of Gynecologic Oncology, 2015)
Blank lines part the entries; values can stand above or below the substance they belong to. No end group written: not given here. *: point of attachment. FITC = O=C1OC2(c3ccc(O)cc3Oc3cc(O)ccc32)c2ccc(NC(=S)*)cc21; Ahx = NCCCCCC(=O)O

Tests used:
[1] = system: VEGFR-3 in ovarian carcinoma tissue sections; parameters: species or system human; settings: FITC-tagged peptide, overnight at 4℃, confocal laser scanning fluorescence microscopy; Fig. 5B, D
[2] = system: SKOV3 ovarian cancer cells (tumor-bearing mice); assay: In vivo targeting of 99mTc-labeled peptide to ovarian tumors; parameters: species or system Balb/c-nu mice; settings: ~3,700 kBq ^99mTc/100 µg peptide, n=6
[3] = cited from earlier work
rhVEGFR-3 = assay: Phage screening; format: binding, human; settings: negative peptide used as immunofluorescence control

Substance: FITC-(aminohexanoic, AHX)-WHWLPNLRHYAS [FITC-tagged peptide III]
interaction with VEGFR-3 (immunofluorescence) [1]: could interact with VEGFR-3

Substance: NHS-MAG3-SHSWHWLPNLRHYAS [^99mTc-labeled peptide]
time of peak radioactivity from ovarian tumor cells after tail vein injection [2]: 3 h

Substance: bevacizumab: a monoclonal antibody specific for VEGF
serious adverse events associated [3]: venous thromboembolism, hypertension, proteinuria, arterial thrombosis, bleeding, and gastrointestinal perforation
risk of fatal adverse events ([3]; meta-analysis that included 34 trials): increased

binding in the phage screening procedure (rhVEGFR-3): negative binding
Substance: {FITC-Ahx}-WHNSLKANYTWG [FITC-labeled negative peptide]
